We go through 31 molecules from patent publication US20260242478A1 (published 2026).

For assay [1], the target named is anti-CD28 Fab. Put plainly: competition ELISA, peptide titrated 0-100 uM against 1 nM anti-CD28 Fab, plate-bound CD28 as competitor. Background: An ELISA detects its analyte on a solid surface through an enzyme-linked reagent.
Assay [2] concerns the target T1, anti-CD28 scFv (disulfide).
T1 construct: also called Anti-CD28 scFv (VH - linker 1 - VL) Disulfide mutation: G44C, G235C
Nature of the assay: competition ELISA, peptide titrated 0-100 uM against 0.3 nM anti-CD28 scFv (disulfide), plate-bound CD28 as competitor.

For assay [3], the target named is T2, Anti-CD28 Fab (SEQ ID NOs: 696, 697).
T2 construct: Biotinylated and captured on neutravidin coated plates in the phage ELISA
Nature of the assay: phage binding ELISA on captured Fab; competitor: CD28 antigen pre-incubated in the wells.

For assay [4] the target is unchanged. Nature of the assay: phage binding ELISA; biotinylated Fab on neutravidin plate, clonal phage supernatant, anti-M13 HRP; background signal 0.06.
Assay [5] deals with T3, PSMA Fab.
T3 construct: also called 006 PSMA Fab; anti-PSMA Fab
Put plainly: BLI (Octet); PSMA Fab on sensor-loaded biotinylated peptide, 1:1 model.

The target of assay [6] is T3, PSMA Fab. Nature of the assay: binding ELISA; PSMA Fab titrated on plate-captured biotinylated peptide.
The target of assay [7] is T3, PSMA Fab. Nature of the assay: competition ELISA; peptide 0-100 µM with 0.3 nM PSMA Fab on plate-captured biotinylated PSMA.
The target of assay [8] is T3, PSMA Fab. The description is as above. The source holds these as a separate data set.
Assay [9] deals with T4, anti-CD28 scFv.
T4 construct: also called Anti-CD28 scFv (VH - linker 1 - VL)
Put plainly: BLI (Octet RED96): biotinylated peptide on streptavidin sensor, anti-CD28 scFv at 100-12.5 nM, 1:1 model. A general note: BLI is a label-free optical method that tracks binding on a fibre tip over time.

Assay [10] deals with anti-CD28 Fab. Nature of the assay: competition ELISA: peptide titrated (0-100 µM) with 1 nM anti-CD28 Fab, binding to plate-bound CD28.
For assay [11], the target named is anti-CD28 Fab. Nature of the assay: BLI (Octet): biotinylated peptide on streptavidin sensor, anti-CD28 Fab titrated in solution, 1:1 model.
Assay [12] deals with T5, anti-CD28 scFv (disulfide).
T5 construct: also called Anti-CD28 scFv (VH - linker 1 - VL) Disulfide mutation: G44C, G235C
Nature of the assay: competition ELISA: peptide titrated (0-100 µM) with 0.3 nM anti-CD28 scFv (disulfide), binding to plate-bound CD28.

The target of assay [13] is T6, Anti-CD28 Fab (SEQ ID NOs: 696, 697).
T6 construct: In the phage ELISA the Fab was biotinylated and captured on neutravidin coated plates
Nature of the assay: phage binding ELISA on captured anti-CD28 Fab; wells pre-incubated with CD28 antigen as competitor.

Assay [14] has the same target. Put plainly: phage binding ELISA; biotinylated anti-CD28 Fab captured on neutravidin plate, clonal phage supernatant, anti-M13 HRP detection.
Assay [15] deals with Ab-15. Put plainly: binding ELISA: biotinylated peptide on neutravidin plate, Ab-15 titrated.
Assay [16] has as its target Ab-15. Put plainly: BLI (Octet): sensor loaded with 200 nM biotinylated peptide, 100 nM Ab-15.
In assay [17] the target is Ab-15. Put plainly: competition ELISA: peptide titrated against 1 nM Ab-15; competitor plate-bound CD28.

Where “and” joins values, the source holds several entries; their conditions need not be identical. Equal values may be shown once. Read-outs that look alike come from different tables or passages of the source. Where no end group is shown, it is not given here. Bounds are passed on as bounds.

Regarding MDWCPRDLWVHCFA [Peptide-41], the IC50 was > 100 µM in assay [1] and 61.5 µM in [2].
The corresponding values for WCWDYKLWVPMTCP [Peptide-85] are > 100 µM and > 100 µM.

B1: Phage-1021 (Peptide-87 library peptide, SEQ ID NO: 1337) (peptide)
peptide: YCDGHLPIYQAKCL
notes: tested as crude clonal phage supernatant
B1: the “Anti-CD28 Fab signal in the presence of CD28 (phage binding ELISA)” value in [3] turned out to be 0.1. In addition, the “Anti-CD28 Fab signal (phage binding ELISA)” value in [4] amounted to 1.49.
Regarding IAVLCQPNWMCAGF (cysteine pairing not given here; also: biotinylated, site not given here, PSMA mask peptide) [Peptide-180], in assay [5], the “Off rate t1/2” value was 36 s. In assay [6], this molecule came in with an EC50 of 0.102 µM. Moreover, the figures for the IC50 in assay [7] and in assay [8] were 5.23 µM and 4.14 µM, respectively.
As for GYCHYWGDMVMWCG (cysteine pairing not given here; also: biotinylated, site not given here) [Peptide-12], in [9], the dissociation constant Kd amounted to 0.017 µM, the koff was found to be 0.00167 s⁻¹ and the kon came to 98700 M⁻¹ s⁻¹.

B2: Peptide-87 (peptide)
peptide: YCAGHAWQYINKCL
modifications: not fully specified; cysteine pairing not given here; also: biotinylated, site not given here
In the case of B2, the IC50 in assay [10] was found to be 12.6 µM. In [11], the Kd came out at 2.02 µM, the koff was determined as 0.0202 s⁻¹, the kon is 10000 M⁻¹ s⁻¹ and the “t1/2” value came to 36 s. Further, in [12], the IC50 was 11 µM and 14.6 µM.

B3: Peptide-114 (peptide)
peptide: YCAGHAWQYIAKCL
notes: Alanine scan variant of Peptide-87 (N11A)
As for B3, the IC50 is 5.49 µM in assay [10] and 7.09 µM in assay [12].

B4: Peptide-116 (peptide)
peptide: YCAGHAWQYINKCA
notes: Alanine scan variant of Peptide-87 (L14A)
Take B4: the results for the IC50 in [10] and in assay [12] were 98.6 µM and 76.4 µM, respectively.

B5: Peptide-110 (peptide)
peptide: YCAGHAAQYINKCL
notes: Alanine scan variant of Peptide-87 (W7A)
As for B5, the values for the IC50 in [10] and in [12] were 3.16 µM and 1.91 µM, respectively.

B6: Peptide-111 (peptide)
peptide: YCAGHAWAYINKCL
notes: Alanine scan variant of Peptide-87 (Q8A)
For B6, the IC50 in assay [10] amounted to 12.3 µM; in assay [12], 10.5 µM.

B7: Peptide-113 (peptide)
peptide: YCAGHAWQYANKCL
notes: Alanine scan variant of Peptide-87 (I10A)
In [10], B7 returned an IC50 of 102 µM.
As for YCDGHLPEYMEKCL [Phage-1327 (Peptide-87 library sequence, SEQ ID NO: 1643)], the “Phage binding ELISA, Anti-CD28 Fab signal in the presence of CD28” value in [13] came out at 0.07. In addition, the “Phage binding ELISA, Anti-CD28 Fab signal” value in [14] is 0.43.
Turning to YCAGHLDEYMEKCL [Phage-1332 (Peptide-87 library sequence, SEQ ID NO: 1648)], the “Phage binding ELISA, Anti-CD28 Fab signal in the presence of CD28” value in [13] was determined as 0.07. Further, in assay [14], the “Phage binding ELISA, Anti-CD28 Fab signal” value was found to be 0.4.

B8: Phage-1013 (Peptide-87 library peptide, SEQ ID NO: 1329) (peptide)
peptide: YCEGHSLMYMAKCL
notes: as for B1
Regarding B8, the “Anti-CD28 Fab signal in the presence of CD28 (phage binding ELISA)” value in assay [3] is 0.06. For the same molecule, the “Anti-CD28 Fab signal (phage binding ELISA)” value in assay [4] was found to be 1.5.
In the case of YCAGHASEYLQKCL [Phage-1328 (Peptide-87 library sequence, SEQ ID NO: 1644)], in assay [13], the “Phage binding ELISA, Anti-CD28 Fab signal in the presence of CD28” value is 0.06. In assay [14], the “Phage binding ELISA, Anti-CD28 Fab signal” value was 0.43.
Regarding YCDGHSQIYMSKCL [Phage-1329 (Peptide-87 library sequence, SEQ ID NO: 1645)], the “Phage binding ELISA, Anti-CD28 Fab signal in the presence of CD28” value in [13] amounted to 0.06. Moreover, the “Phage binding ELISA, Anti-CD28 Fab signal” value in [14] was determined as 0.42.

B9: Phage-1012 (Peptide-87 library peptide, SEQ ID NO: 1328) (peptide)
peptide: YCEGHMPQYMEKCL
notes: as for B1
Turning to B9, the “Anti-CD28 Fab signal in the presence of CD28 (phage binding ELISA)” value in [3] turned out to be 0.06. The “Anti-CD28 Fab signal (phage binding ELISA)” value in [4] was found to be 1.51.
In assay [15], IDWCPLHLWHECYH (cysteine pairing not given here; also: biotinylated, site not given here, CD28 peptide mask) [Peptide-72] showed an EC50 of 0.0133 µM. In addition, the “Octet signal (200 nM peptide)” value in assay [16] came to 0.838. In assay [17], this molecule yielded an IC50 of 1.52 µM.

B10: Phage-1020 (Peptide-87 library peptide, SEQ ID NO: 1336) (peptide)
peptide: YCEGHIMQYMAQCL
notes: as for B1
B10: the “Anti-CD28 Fab signal in the presence of CD28 (phage binding ELISA)” value in [3] was 0.06. Also, the “Anti-CD28 Fab signal (phage binding ELISA)” value in [4] was determined as 1.49.
In [15], IYWCPIDRWNDCYN (cysteine pairing not given here; also: biotinylated, site not given here, CD28 peptide mask) [Peptide-74] had an EC50 of 0.0076 µM. Also, in [16], the “Octet signal (200 nM peptide)” value amounted to 0.705. The molecule also showed an IC50 in [17] of 0.41 µM.
Take YCDGHTWMYKQKCL [Phage-1333 (Peptide-87 library sequence, SEQ ID NO: 1649)]: the “Phage binding ELISA, Anti-CD28 Fab signal in the presence of CD28” value in [13] is 0.08. In addition, in assay [14], the “Phage binding ELISA, Anti-CD28 Fab signal” value stood at 0.4.
For YCTGWQVAYMQNCF [Phage-1331 (Peptide-87 library sequence, SEQ ID NO: 1647)], in assay [13], the “Phage binding ELISA, Anti-CD28 Fab signal in the presence of CD28” value came to 0.06. In addition, the “Phage binding ELISA, Anti-CD28 Fab signal” value in assay [14] turned out to be 0.42.
Regarding YCDGHWPGYLWKCL [Phage-1330 (Peptide-87 library sequence, SEQ ID NO: 1646)], the “Phage binding ELISA, Anti-CD28 Fab signal in the presence of CD28” value in assay [13] is 0.06. In assay [14], the “Phage binding ELISA, Anti-CD28 Fab signal” value was found to be 0.42.

B11: Phage-1022 (Peptide-87 library peptide, SEQ ID NO: 1338) (peptide)
peptide: YCDGHSEQYIAKCL
notes: as for B1
On to B11, for which the “Anti-CD28 Fab signal in the presence of CD28 (phage binding ELISA)” value in assay [3] came to 0.08. In [4], the “Anti-CD28 Fab signal (phage binding ELISA)” value worked out at 1.49.
In turn, LDWCPRHLWALCFN (cysteine pairing not given here; also: biotinylated, site not given here, CD28 peptide mask) [Peptide-70] gave an EC50 in assay [15] of 0.0082 µM. Further, the “Octet signal (200 nM peptide)” value in [16] came out at 0.697. In addition, the IC50 in [17] was determined as 0.47 µM.
In the case of ACDTYFAGMINECF [Peptide-79], the IC50 in [1] and in [2] was > 100 µM each time.
As to VPWCQIISGLECLT (cysteine pairing not given here; also: biotinylated, site not given here, CD28 peptide mask) [Peptide-73], it took 0.0549 µM to reach a half-maximal effect in [15] (EC50). Also, the “Octet signal (200 nM peptide)” value in assay [16] was 0.166. Besides, the concentration for half-maximal inhibition (IC50) in assay [17] was > 100 µM.
For MDWCPRERWVDCFF (cysteine pairing not given here; also: biotinylated, site not given here) [Peptide-9], in assay [9], the Kd turned out to be 0.377 µM, the koff worked out at 0.0123 s⁻¹ and the kon is 32500 M⁻¹ s⁻¹.

B12: Phage-1014 (Peptide-87 library peptide, SEQ ID NO: 1330) (peptide)
peptide: YCDGHSQEYMEKCL
notes: as for B1
Consider B12, for which the “Anti-CD28 Fab signal in the presence of CD28 (phage binding ELISA)” value in assay [3] was determined as 0.06. For the same molecule, the “Anti-CD28 Fab signal (phage binding ELISA)” value in assay [4] is 1.5.

B13: Phage-1010 (Peptide-87 library peptide, SEQ ID NO: 1326) (peptide)
peptide: YCDGHSELYMAKCL
notes: as for B1
For the molecule B13, the “Anti-CD28 Fab signal in the presence of CD28 (phage binding ELISA)” value in assay [3] stood at 0.06. The “Anti-CD28 Fab signal (phage binding ELISA)” value in assay [4] worked out at 1.51.
In the case of YCAGHSPINIGKCL [Peptide-84], the 50% inhibitory concentration (IC50) is 26.8 µM in [1] and > 100 µM in assay [2].

For orientation: IC50 means the point on the concentration scale where inhibition reaches its midpoint. Read a low IC50 as inhibition by little substance. A word on the EC50: it is the concentration at which the effect is half-maximal. Lower therefore signals higher potency in that assay. The Kd is the free concentration of one partner at which half of the binding sites on the other are occupied at equilibrium, for simple one-to-one binding. As usually defined, the koff is a measure of how fast the partners let go of each other. One may read the kon as the second-order rate constant of association. Low values mean slow association, high ones fast association.
